Several values for one entry are separate records, joined by “and”; a condition that tells them apart may be missing. Equal values may be shown once.
Tests used:
[1] = target: mouse neonatal Fc receptor (mFcRn) (mouse) (UniProt Q61559); experiment: SPR
CD20 on Raji cells [2] = target: CD20 on Raji cells (UniProt P11836); experiment: flow cytometry, Raji cells; […]
CD20 on Raji cells [3] = target: CD20 on Raji cells (UniProt P11836); experiment: flow cytometry, Raji cells; 10 µg/mL
CD20 on Raji cells [4] = target: CD20 on Raji cells (UniProt P11836); experiment: flow cytometry, Raji cells; 2.5 µg/mL
CD20 on Raji cells [5] = target: CD20 on Raji cells (UniProt P11836); experiment: flow cytometry, Raji cells; 0.625 µg/mL
CD20 on Raji cells [6] = target: CD20 on Raji cells (UniProt P11836); experiment: flow cytometry, Raji cells; 0.00061 µg/mL
CD20 on Raji cells [7] = target: CD20 on Raji cells (UniProt P11836); experiment: flow cytometry, Raji cells; 0.15625 µg/mL
CD20 on Raji cells [8] = target: CD20 on Raji cells (UniProt P11836); experiment: flow cytometry, Raji cells; 0.009766 µg/mL
CD20 on Raji cells [9] = target: CD20 on Raji cells (UniProt P11836); experiment: flow cytometry, Raji cells; 0.039063 µg/mL
[10] = target: FcγRIIIaV with a hexahistidine tag (R&D Systems) (human) (UniProt P08637); experiment: BLI, His-FcγRIIIaV on anti-penta-His sensor, steady-state model
[11] = target: human neonatal Fc receptor (hFcRn), biotinylated (human) (UniProt P55899); experiment: SPR, biotinylated hFcRn on streptavidin chip, IgG injected, pH 6.0
[12] = target: His-tagged FcγRIIb (R&D Systems) (human) (UniProt P31994); experiment: competition ELISA, His-FcγRIIb, competitor coated HZ 15C1; 1000 µg/ml
[13] = target: His-tagged FcγRIIb (R&D Systems) (human) (UniProt P31994); experiment: competition ELISA, His-FcγRIIb, competitor coated HZ 15C1; 3000 µg/ml
[14] = target: His-tagged FcγRIIb (R&D Systems) (human) (UniProt P31994); experiment: competition ELISA, His-FcγRIIb, competitor coated HZ 15C1; 4.12 µg/ml
[15] = target: His-tagged FcγRIIb (R&D Systems) (human) (UniProt P31994); experiment: competition ELISA, His-FcγRIIb, competitor coated HZ 15C1; 12.35 µg/ml
[16] = target: His-tagged FcγRIIb (R&D Systems) (human) (UniProt P31994); experiment: competition ELISA, His-FcγRIIb, competitor coated HZ 15C1; 37.04 µg/ml
[17] = target: His-tagged FcγRIIb (R&D Systems) (human) (UniProt P31994); experiment: competition ELISA, His-FcγRIIb, competitor coated HZ 15C1; 111.11 µg/ml
[18] = target: His-tagged FcγRIIb (R&D Systems) (human) (UniProt P31994); experiment: competition ELISA, His-FcγRIIb, competitor coated HZ 15C1; 333.33 µg/ml
[19] = target: His-tagged FcγRI (R&D Systems) (human) (UniProt P12314); experiment: competition ELISA, His-FcγRI, competitor coated anti-idiotype antibody; 2 µg/ml
[20] = target: His-tagged FcγRI (R&D Systems) (human) (UniProt P12314); experiment: competition ELISA, His-FcγRI, competitor coated anti-idiotype antibody; 10 µg/ml
[21] = target: His-tagged FcγRI (R&D Systems) (human) (UniProt P12314); experiment: competition ELISA, His-FcγRI, competitor coated anti-idiotype antibody; 50 µg/ml
[22] = target: His-tagged FcγRI (R&D Systems) (human) (UniProt P12314); experiment: competition ELISA, His-FcγRI, competitor coated anti-idiotype antibody; 0.4 µg/ml
[23] = target: His-tagged FcγRI (R&D Systems) (human) (UniProt P12314); experiment: competition ELISA, His-FcγRI, competitor coated anti-idiotype antibody; 0.08 µg/ml
[24] = target: His-tagged FcγRI (R&D Systems) (human) (UniProt P12314); experiment: competition ELISA, His-FcγRI, competitor coated anti-idiotype antibody; 0.016 µg/ml
[25] = target: His-tagged FcγRI (R&D Systems) (human) (UniProt P12314); experiment: competition ELISA, His-FcγRI, competitor coated anti-idiotype antibody; 0.0006 µg/ml
[26] = target: His-tagged FcγRI (R&D Systems) (human) (UniProt P12314); experiment: competition ELISA, His-FcγRI, competitor coated anti-idiotype antibody; 0.0032 µg/ml
[27] = target: His-tagged FcγRIIa (FcγRIIaR, R&D Systems) (human) (UniProt P12318); experiment: competition ELISA, His-FcγRIIaR, competitor coated HZ 15C1; concentration cell 2.22185
[28] = target: His-tagged FcγRIIa (FcγRIIaR, R&D Systems) (human) (UniProt P12318); experiment: competition ELISA, His-FcγRIIaR, competitor coated HZ 15C1; concentration cell 2.69897
[29] = target: His-tagged FcγRIIa (FcγRIIaR, R&D Systems) (human) (UniProt P12318); experiment: competition ELISA, His-FcγRIIaR, competitor coated HZ 15C1; concentration cell -0.16368
[30] = target: His-tagged FcγRIIa (FcγRIIaR, R&D Systems) (human) (UniProt P12318); experiment: competition ELISA, His-FcγRIIaR, competitor coated HZ 15C1; concentration cell -0.64016
[31] = target: His-tagged FcγRIIa (FcγRIIaR, R&D Systems) (human) (UniProt P12318); experiment: competition ELISA, His-FcγRIIaR, competitor coated HZ 15C1; concentration cell 0.313445
[32] = target: His-tagged FcγRIIa (FcγRIIaR, R&D Systems) (human) (UniProt P12318); experiment: competition ELISA, His-FcγRIIaR, competitor coated HZ 15C1; concentration cell 0.790496
[33] = target: His-tagged FcγRIIa (FcγRIIaR, R&D Systems) (human) (UniProt P12318); experiment: competition ELISA, His-FcγRIIaR, competitor coated HZ 15C1; concentration cell 1.267617
[34] = target: His-tagged FcγRIIa (FcγRIIaR, R&D Systems) (human) (UniProt P12318); experiment: competition ELISA, His-FcγRIIaR, competitor coated HZ 15C1; concentration cell 1.744731

UniProt P12314, sequence (P12314 16-288 limits assumed): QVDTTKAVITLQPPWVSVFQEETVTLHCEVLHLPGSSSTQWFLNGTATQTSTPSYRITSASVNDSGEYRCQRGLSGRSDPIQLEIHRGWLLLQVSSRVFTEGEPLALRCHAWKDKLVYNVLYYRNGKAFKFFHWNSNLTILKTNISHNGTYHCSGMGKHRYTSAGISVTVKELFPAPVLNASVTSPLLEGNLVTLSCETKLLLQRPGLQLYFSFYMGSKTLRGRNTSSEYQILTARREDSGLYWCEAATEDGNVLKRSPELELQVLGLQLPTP
UniProt P12318, sequence (P12318 36-218 H167R limits assumed): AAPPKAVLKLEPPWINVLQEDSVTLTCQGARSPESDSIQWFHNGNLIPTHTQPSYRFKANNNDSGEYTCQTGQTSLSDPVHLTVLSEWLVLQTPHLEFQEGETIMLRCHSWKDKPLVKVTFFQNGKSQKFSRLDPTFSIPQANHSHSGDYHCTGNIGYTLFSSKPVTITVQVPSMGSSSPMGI
UniProt P11836, sequence (P11836 whole entry): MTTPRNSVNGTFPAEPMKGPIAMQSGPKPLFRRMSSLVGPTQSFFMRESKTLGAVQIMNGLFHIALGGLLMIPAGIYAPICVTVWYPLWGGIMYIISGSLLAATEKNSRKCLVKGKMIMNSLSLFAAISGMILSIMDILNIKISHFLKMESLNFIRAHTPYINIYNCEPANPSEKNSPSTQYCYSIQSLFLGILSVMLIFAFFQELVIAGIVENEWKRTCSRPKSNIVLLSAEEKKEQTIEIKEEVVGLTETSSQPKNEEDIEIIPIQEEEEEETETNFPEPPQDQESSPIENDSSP
UniProt P31994, sequence (P31994 46-217 limits assumed): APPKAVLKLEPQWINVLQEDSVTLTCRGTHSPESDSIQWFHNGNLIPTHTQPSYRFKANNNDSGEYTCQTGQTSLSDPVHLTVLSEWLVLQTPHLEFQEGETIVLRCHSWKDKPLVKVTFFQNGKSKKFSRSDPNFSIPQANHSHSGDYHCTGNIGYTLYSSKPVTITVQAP
UniProt P55899, sequence (P55899 24-297 limits assumed): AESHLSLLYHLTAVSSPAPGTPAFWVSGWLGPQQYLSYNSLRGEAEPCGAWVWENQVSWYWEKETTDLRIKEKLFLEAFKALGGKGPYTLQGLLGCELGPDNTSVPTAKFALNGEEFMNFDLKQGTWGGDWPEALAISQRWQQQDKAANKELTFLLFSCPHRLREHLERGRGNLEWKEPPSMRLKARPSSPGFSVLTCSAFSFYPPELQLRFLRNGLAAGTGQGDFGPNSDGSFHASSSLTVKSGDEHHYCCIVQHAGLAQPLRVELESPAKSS
UniProt P08637, sequence (P08637 17-208 F176V limits assumed): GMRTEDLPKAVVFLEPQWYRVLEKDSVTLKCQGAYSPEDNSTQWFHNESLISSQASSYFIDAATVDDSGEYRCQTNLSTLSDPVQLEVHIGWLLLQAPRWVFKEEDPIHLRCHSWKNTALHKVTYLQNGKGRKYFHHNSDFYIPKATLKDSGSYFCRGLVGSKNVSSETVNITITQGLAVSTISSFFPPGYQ
UniProt Q61559, sequence (Q61559 22-297 limits assumed): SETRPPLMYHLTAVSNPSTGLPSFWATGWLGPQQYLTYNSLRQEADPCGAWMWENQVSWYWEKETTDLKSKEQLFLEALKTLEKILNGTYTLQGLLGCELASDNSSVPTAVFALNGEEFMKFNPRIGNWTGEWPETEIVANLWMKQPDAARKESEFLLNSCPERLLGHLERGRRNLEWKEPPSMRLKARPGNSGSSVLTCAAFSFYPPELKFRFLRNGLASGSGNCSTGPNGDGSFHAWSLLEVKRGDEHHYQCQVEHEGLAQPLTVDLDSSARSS

Kd [1]: 0.258 nM | flow cytometry signal (name not given) (CD20 on Raji cells [2]): 28.6 and 27.5 and 23.2 | flow cytometry signal (name not given) (CD20 on Raji cells [3]): 2640 and 2560 and 2580 | flow cytometry signal (name not given) (CD20 on Raji cells [4]): 2150 and 2180 and 1920 | flow cytometry signal (name not given) (CD20 on Raji cells [5]): 1500 and 1520 and 1550 | flow cytometry signal (name not given) (CD20 on Raji cells [6]): 14.1 and 12.3 and 11.3 | flow cytometry signal (name not given) (CD20 on Raji cells [7]): 673 (2×) and 644 | flow cytometry signal (name not given) (CD20 on Raji cells [8]): 76.4 and 79.7 and 72.2 | flow cytometry signal (name not given) (CD20 on Raji cells [9]): 241 and 234 and 210 | Kd [10]: 500 nM | Kd [11]: 5.6 nM | absorbance at 450 nm [12]: 0.641 and 0.629 | absorbance at 450 nm [13]: 0.284 and 0.274 | absorbance at 450 nm [14]: 2.27 and 1.92 | absorbance at 450 nm [15]: 1.99 and 1.87 | absorbance at 450 nm [16]: 1.66 and 1.54 | absorbance at 450 nm [17]: 1.52 and 1.49 | absorbance at 450 nm [18]: 1.06 and 1.1 | absorbance at 450 nm [19]: 0.388 and 0.379 and 0.377 | absorbance at 450 nm [20]: 0.143 and 0.141 | absorbance at 450 nm [21]: 0.085 and 0.091 and 0.084 | absorbance at 450 nm [22]: 1.14 and 1.1 (2×) | absorbance at 450 nm [23]: 2.24 and 2.2 and 2.33 | absorbance at 450 nm [24]: 3.05 and 3.04 and 3.16 | absorbance at 450 nm [25]: 3.43 and 3.6 (2×) | absorbance at 450 nm [26]: 3.39 and 3.4 and 3.44 | absorbance at 450 nm [27]: 1.5 and 1.64 and 1.68 | absorbance at 450 nm [28]: 0.684 and 0.732 and 0.671 | absorbance at 450 nm [29]: 2.69 and 3.02 and 3.1 | absorbance at 450 nm [30]: 2.6 and 2.88 and 2.98 | absorbance at 450 nm [31]: 2.57 and 2.96 and 2.93 | absorbance at 450 nm [32]: 2.56 and 2.91 and 2.98 | absorbance at 450 nm [33]: 2.43 and 2.91 and 2.73 | absorbance at 450 nm [34]: 2.11 and 2.46 and 2.36
Substance: 293S anti-CD20 (monoclonal anti-CD20 antibody obinutuzumab, GA101, produced in 293S cells)
